Source: patent publication US20040076958

T1: AA21 synthetic peptide (N21 with two conserved glycines replaced by alanine)
T1 chain: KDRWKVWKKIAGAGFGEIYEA

B1: Brain Derived Tau Kinase (BDTK) (protein)
chain: MQCLAAALKDETNMSGGGEQADILPANYVVKDRWKVVKKIGGGGFGEIYEAMDLLTRENVALKVESAQQPKQVLKMEVAVLKKLQGKDHVCRFIGCGRNEKFNYVVMQLQGRNLADLRRSQPRGTFTLSTTLRLGKQILESIEAIHSVGFLHRDIKPSNFAMGRLPSTYRKCYMLDFGLARQYTNTTGDVRPPRNVAGFRGTVRYASVNAHKNREMGRHDDLWSLFYMLVEFAVGQLPWRKIKDKEQVGMIKEKYEHRMLLKHMPSEFHLFLDHIASLDYFTKPDYQLIMSVFENSMKERGIAENEAFDWEKAGTDALLSTSTSTPPQQNTRQTAAMFGVVNVTPVPGDLLRENTEDVLQGEHLSDQENAPPILPGRPSEGLGPSPHLVPHPGGPEAEVWEETDVNRNKLRINIGKSPCVEEEQSRGMGVPSSPVRAPPDSPTTPVRSLRYRRVNSPESERLSTADGRVELPERRSRMDLPGSPSRQACSSQPAQMLSVDTGHADRQASGRMDVSASVEQEALSNAFRSVPLAEEEDFDSKEWVIIDKETELKDFPPGAEPSTSGTTDEEPEELRPLPEEGEERRRLGAEPTVRPRGRSMQALAEEDLQHLPPQPLPPQLSQGDGRSETSQPPTPGSPSHSPLHSGPRPRRRESDPTGPQRQVFSVAPPFEVNGLPRAVPLSLPYQDFKRDLSDYRERARLLNRVRRVGFSHMLLTTPQVPLAPVQPQANGKEEEEEEEEDEEEEEEDEEEEEEEEEEEEEEEEEEEEEEEAAAAVALGEVLGPRSGSSSEGSERSTDRSQEGAPSTLLADDQKESRGRASMADGDLEPEEGSKTLVLVSPGDMKKSPVTAELAPDPDLGTLAALTPQHERPQPTGSQLDVSEPGTLSSVLKSEPKPPGPGAGLGAGTVTTGVGGVAVTSSPFTKVERTFVHIAEKTHLNVMSSGGQALRSEEFSAGGELGLELASDGGAVEEGARAPLENGLALSGLNGAEIEGSALSGAPRETPSEMATNSLPNGPALADGPAPVSPLEPSPEKVATISPRRHAMPGSRPRSRIPVLLSEEDTGSEPSGSLSAKERWSKRARPQQDLARLVMEKRQGRLLLRLASGASSSSSEEQRRASETLSGTGSEEDTPASEPAAALPRKSGRAAATRSRIPRPIGLRMPMPVAAQQPASRSHGAAPALDTAITSRLQLQTPPGSATAADLRPKQPPGRGLGPGRAQAGARPPAPRSPRLPASTSAARNASASPRSQSLRRESPSPSHQARPGVPPPRGVPPARAQPDGTPSPGGSKKGPRGKLQAQRATTKGRAGGAEGRAGAR
B2: His-tagged BDTK(38-319), BDTK kinase domain (protein)
chain: KKIGGGGFGEIYEAMDLLTRENVALKVESAQQPKQVLKMEVAVLKKLQGKDHVCRFIGCGRNEKFNYVVMQLQGRNLADLRRSQPRGTFTLSTTLRLGKQILESIEAIHSVGFLHRDIKPSNFAMGRLPSTYRKCYMLDFGLARQYTNTTGDVRPPRNVAGFRGTVRYASVNAHKNREMGRHDDLWSLFYMLVEFAVGQLPWRKIKDKEQVGMIKEKYEHRMLLKHMPSEFHLFLDHIASLDYFTKPDYQLIMSVFENSMKERGIAENEAFDWEKAGTDALL

Experiments:
[1] = biological target: T1, AA21 synthetic peptide (N21 with two …)
[2] = biological target: recombinant human tau (1-441), full length tau, P10636
Chain of recombinant human tau (1-441), full length tau, P10636 (P10636 whole entry, looked up, tested part not stated): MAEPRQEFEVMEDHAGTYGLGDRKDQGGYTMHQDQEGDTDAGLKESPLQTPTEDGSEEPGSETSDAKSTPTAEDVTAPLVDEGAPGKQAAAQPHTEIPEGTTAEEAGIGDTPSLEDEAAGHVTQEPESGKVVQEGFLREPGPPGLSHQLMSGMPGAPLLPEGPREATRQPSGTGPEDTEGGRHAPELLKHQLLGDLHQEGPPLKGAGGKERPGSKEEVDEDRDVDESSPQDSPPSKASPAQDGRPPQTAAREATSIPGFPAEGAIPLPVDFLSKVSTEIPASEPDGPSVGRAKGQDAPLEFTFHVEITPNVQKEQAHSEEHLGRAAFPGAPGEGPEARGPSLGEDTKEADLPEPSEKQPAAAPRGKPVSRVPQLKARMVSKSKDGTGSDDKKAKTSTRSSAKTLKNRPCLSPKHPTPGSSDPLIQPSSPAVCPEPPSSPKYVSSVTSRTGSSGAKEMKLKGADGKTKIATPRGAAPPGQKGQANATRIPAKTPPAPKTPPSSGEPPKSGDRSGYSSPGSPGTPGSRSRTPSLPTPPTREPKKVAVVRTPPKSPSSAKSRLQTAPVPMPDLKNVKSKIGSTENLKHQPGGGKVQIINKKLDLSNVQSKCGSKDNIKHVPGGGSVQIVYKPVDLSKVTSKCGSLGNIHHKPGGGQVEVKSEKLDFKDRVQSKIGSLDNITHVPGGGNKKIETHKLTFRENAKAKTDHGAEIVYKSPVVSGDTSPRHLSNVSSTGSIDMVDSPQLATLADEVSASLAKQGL

| Protein | BDTK phosphorylation and tau phosphorylation in vitro (AA21-BDTK, AA21-tau) [1] | tau phosphorylation [2] | tau phosphorylation in vitro ([gamma-32P]ATP, SDS-PAGE, autoradiography) [2] | time at which tau phosphorylation was saturated, pH 6.5 [2] | time at which tau phosphorylation was saturated, pH 7.5 [2] |
| --- | --- | --- | --- | --- | --- |
| B1 | AA21 mutated peptide rather increased both BDTK (AA21-BDTK, from 30 to 300 )µM) and tau phosphorylation (AA21-tau, from 30 µM to 1 µM) in dose response manner | Full length BDTK (SEQ ID NO:1), and isolated BDTK kinase domain (amino acids 38-319, SEQ ID NO:4) are able to phosphorylate tau | – | – | – |
| B2 | – | – | did phosphorylate tau protein as well as BDTK itself | 120 min at pH 6.5 | tau phosphorylation was saturated at 60 min at pH 7.5 |
